Measurements published in patent US10780117.

Target: Myc-tagged CRT expressed in J774 cells
Sequence (P27797 18-417): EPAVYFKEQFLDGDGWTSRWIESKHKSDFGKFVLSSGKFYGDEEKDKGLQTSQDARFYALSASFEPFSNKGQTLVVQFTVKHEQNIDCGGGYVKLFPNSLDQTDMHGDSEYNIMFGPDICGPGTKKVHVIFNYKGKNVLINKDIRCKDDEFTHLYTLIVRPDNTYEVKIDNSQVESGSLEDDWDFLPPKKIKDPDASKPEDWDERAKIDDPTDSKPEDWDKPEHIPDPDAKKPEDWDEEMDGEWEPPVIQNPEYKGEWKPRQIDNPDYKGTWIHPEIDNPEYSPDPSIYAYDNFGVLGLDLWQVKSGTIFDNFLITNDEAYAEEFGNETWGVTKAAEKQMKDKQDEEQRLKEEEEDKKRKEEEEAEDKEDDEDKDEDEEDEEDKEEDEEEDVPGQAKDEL

B1: Bruton's tyrosine kinase (Btk) in J774 mouse macrophage cells (protein)
chain: AAVILESIFLKRSQQKKKTSPLNFKKRLFLLTVHKLSYYEYDFERGRRGSKKGSIDVEKITCVETVIPEKNPPPERQIPRRGEESSEMEQISIIERFPYPFQVVYDEGPLYVFSPTEELRKRWIHQLKNVIRYNSDLVQKYHPCFWIDGQYLCCSQTAKNAMGCQILENRNGSLKPGSSHRKTKKPLPPTPEEDQILKKPLPPEPTAAPISTTELKKVVALYDYMPMNANDLQLRKGEEYFILEESNLPWWRARDKNGQEGYIPSNYITEAEDSIEMYEWYSKHMTRSQAEQLLKQEGKEGGFIVRDSSKAGKYTVSVFAKSTGEPQGVIRHYVVCSTPQSQYYLAEKHLFSTIPELINYHQHNSAGLISRLKYPVSKQNKNAPSTAGLGYGSWEIDPKDLTFLKELGTGQFGVVKYGKWRGQYDVAIKMIREGSMSEDEFIEEAKVMMNLSHEKLVQLYGVCTKQRPIFIITEYMANGCLLNYLREMRHRFQTQQLLEMCKDVCEAMEYLESKQFLHRDLAARNCLVNDQGVVKVSDFGLSRYVLDDEYTSSVGSKFPVRWSPPEVLMYSKFSSKSDIWAFGVLMWEIYSLGKMPYERFTNSETAEHIAQGLRLYRPHLASERVYTIMYSCWHEKADERPSFKILLSNILDVMDEES
Q: With B1 as the protein, how does the “tyrosine phosphorylation of immunoprecipitated myc-CRT (immunoblot with anti-phosphotyrosine antibody)” value read?
A: Its value is “Immunoblot showing CRT phosphorylation upon Btk activation”.
